Test results published in patent publication US7074595B2, “General means of labeling protein by using wheat embryo cell-free protein synthesis system” (CellFree Sciences Co., Ltd., priority 2000, dated 2006).

Experiments:
Format in all cases: biochemical
[1] = substrate: NC(=O)C1=CN([C@@H]2O[C@H](COP(=O)(O)OP(=O)(O)OC[C@H]3O[C@@H](n4cnc5c(N)ncnc54)[C@H](OP(=O)(O)O)[C@@H]3O)[C@@H](O)[C@H]2O)C=CC1; experiment: enzymatic properties of DHFR (Table 1): Michaelis constant and maximum velocity, Met-DHFR; conditions: other: Met-DHFR
Procedure: (§1) Purification of GFP and measurement of its activity by analysis of fluorescence spectrum using a fluorospectrophotometer were carried out in accordance with a method by Deschamps, et al. [Deschamps, J. R. et al., (1995) Protein Expression and Purification, 6, 555–558]. In the measurement of fluorescence spectrum, a fluorophotometer of type RF-5000 by Shimadzu was used. DHFR activity was measured by a method of Stanley, et al. [Methods. Enzymol. 18, 195–199 (1971)].
(§2) Then enzymatic properties of the selenomethionine-containing proteins purified as such were investigated biochemically. Fluorescence emission spectrum of a certain concentration of the purified GFP preparation shown in FIG. 2 excited at the wavelength of 395 nm was measured within a range of 410 nm to 600 nm and the result is shown in FIG. 3. As will be apparent from FIG. 3, there is no difference between the fluorescence emission spectra of GFP [(A) in FIG. 3] and selenomethionine GFP [(B) in FIG. 3]. Thus, the conclusion is that the change in GFP activity by substituting methionine residue with selenomethionine is not higher than the usual measurement sensitivity. […]

[2] = substrate: NC(=O)C1=CN([C@@H]2O[C@H](COP(=O)(O)OP(=O)(O)OC[C@H]3O[C@@H](n4cnc5c(N)ncnc54)[C@H](OP(=O)(O)O)[C@@H]3O)[C@@H](O)[C@H]2O)C=CC1; experiment: enzymatic properties of DHFR (Table 2): Michaelis constant and maximum velocity, Natural-Type DHFR; conditions: other: Natural-Type DHFR
Procedure: as §1
Then enzymatic properties of the purified heavy hydrogen-labeled DHFR were biochemically investigated by the same manner as in Example 1. As will be apparent from Table 2, both Vmax and Michaelis constant (Km) to NADPH which are parameters for enzymatic chemical property of natural-type DHFR and heavy hydrogen-labeled DHFR show no difference between both enzymes. Thus, it became clear that DHFR comprising heavy hydrogen-labeled amino acids maintained nearly the same enzymatic activity as the natural-type DHFR.

[3] = substrate: NC(=O)C1=CN([C@@H]2O[C@H](COP(=O)(O)OP(=O)(O)OC[C@H]3O[C@@H](n4cnc5c(N)ncnc54)[C@H](OP(=O)(O)O)[C@@H]3O)[C@@H](O)[C@H]2O)C=CC1; experiment: enzymatic properties of DHFR (Table 2): Michaelis constant and maximum velocity, Heavy Hydrogen-Labeled DHFR; conditions: other: Heavy Hydrogen-Labeled DHFR
Procedure: as §1
With regard to the wheat embryo, that being contaminated with substantially no endosperm component prepared by the method mentioned in Example 1 was used. Preparation of an extract from wheat embryo was carried out by the exactly same method as Example 1 except that the solution for extraction and the solution used for gel filtration contained 20 kinds of heavy hydrogen-labeled L-amino acids instead of 20 kinds of selenomethionine-containing L-amino acids. Concentration of the prepared extract was adjusted to 170˜250 A260 nm (A260/A280=1.5).
Although the composition of the protein synthesis reaction solution is as same as that described in Example 1, it contains 20 kinds of heavy hydrogen-labeled L-amino acids instead of 20 kinds of selenomethionine-containing L-amino acids.
Then enzymatic properties of the purified heavy hydrogen-labeled DHFR were biochemically investigated by the same manner as in Example 1. […]

[4] = substrate: NC(=O)C1=CN([C@@H]2O[C@H](COP(=O)(O)OP(=O)(O)OC[C@H]3O[C@@H](n4cnc5c(N)ncnc54)[C@H](OP(=O)(O)O)[C@@H]3O)[C@@H](O)[C@H]2O)C=CC1; experiment: enzymatic properties of DHFR (Table 1): Michaelis constant and maximum velocity, SeMet-DHFR; conditions: other: SeMet-DHFR
Procedure: as §1, §2

B1: dihydrofolate reductase (DHFR), natural-type methionine-containing (Met-DHFR) (Escherichia coli K-12) (protein)
chain: MISLIAALAVDRVIGMENAMPWNLPADLAWFKRNTLNKPVIMGRHTWESIGRPLPGRKNIILSSQPGTDDRVTWVKSVDEAIAACGDVPEIMVIGGGRVYEQFLPKAQKLYLTHIDAEVEGDTHFPDYEPDDWESVFSEFHDADAQNSHSYCFEILERR
notes: made in house; host or cells: wheat embryo extract cell-free protein synthesis (dialysis type)
Km [1]: 11.2 µM

B2: dihydrofolate reductase (DHFR), Natural-Type DHFR (Escherichia coli K-12) (protein)
chain: MISLIAALAVDRVIGMENAMPWNLPADLAWFKRNTLNKPVIMGRHTWESIGRPLPGRKNIILSSQPGTDDRVTWVKSVDEAIAACGDVPEIMVIGGGRVYEQFLPKAQKLYLTHIDAEVEGDTHFPDYEPDDWESVFSEFHDADAQNSHSYCFEILERR
notes: as for B1
Km [2]: 13.2 µM

B3: dihydrofolate reductase (DHFR), Heavy Hydrogen-Labeled DHFR (20 kinds of heavy hydrogen-labeled L-amino acids) (Escherichia coli K-12) (protein)
chain: MISLIAALAVDRVIGMENAMPWNLPADLAWFKRNTLNKPVIMGRHTWESIGRPLPGRKNIILSSQPGTDDRVTWVKSVDEAIAACGDVPEIMVIGGGRVYEQFLPKAQKLYLTHIDAEVEGDTHFPDYEPDDWESVFSEFHDADAQNSHSYCFEILERR
notes: as for B1
Km [3]: 14.7 µM

B4: dihydrofolate reductase (DHFR), selenomethionine-containing (SeMet-DHFR) (Escherichia coli K-12) (protein)
chain: MISLIAALAVDRVIGMENAMPWNLPADLAWFKRNTLNKPVIMGRHTWESIGRPLPGRKNIILSSQPGTDDRVTWVKSVDEAIAACGDVPEIMVIGGGRVYEQFLPKAQKLYLTHIDAEVEGDTHFPDYEPDDWESVFSEFHDADAQNSHSYCFEILERR
notes: as for B1
Km [4]: 10.2 µM
